Assay results taken from US20190212291.

Key:
[1] = system: PEG-T48-Q
[2] = system: PEG-T58-Q
[3] = system: PEG-T38-Q
[4] = system: PEG-T2-Q
[5] = system: PEG-T51-Q
[6] = system: PEG-T56-Q
[7] = system: PEG-T43-Q
[8] = system: PEG-T7-Q
[9] = system: PEG-T1-Q
[10] = system: PEG-T3-Q
[11] = system: SB14
[12] = system: PEG-T24-Q
[13] = system: PEG-T54-Q
[14] = system: T1, PB2
T1 sequence: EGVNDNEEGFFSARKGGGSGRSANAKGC

[15] = system: T2, PEG-T39-Q
T2 sequence: GGGSGRSANAKGKGC

MMP9, sequence (chain, as listed by the source): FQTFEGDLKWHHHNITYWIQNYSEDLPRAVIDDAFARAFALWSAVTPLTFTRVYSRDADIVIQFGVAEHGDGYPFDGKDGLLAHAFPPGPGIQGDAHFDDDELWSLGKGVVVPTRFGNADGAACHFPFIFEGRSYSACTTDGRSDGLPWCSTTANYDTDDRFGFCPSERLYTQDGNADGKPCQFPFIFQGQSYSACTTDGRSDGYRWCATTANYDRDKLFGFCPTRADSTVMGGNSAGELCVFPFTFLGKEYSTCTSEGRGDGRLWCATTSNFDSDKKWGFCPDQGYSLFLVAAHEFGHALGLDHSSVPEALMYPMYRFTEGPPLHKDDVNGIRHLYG
MMP3, sequence (chain, as listed by the source): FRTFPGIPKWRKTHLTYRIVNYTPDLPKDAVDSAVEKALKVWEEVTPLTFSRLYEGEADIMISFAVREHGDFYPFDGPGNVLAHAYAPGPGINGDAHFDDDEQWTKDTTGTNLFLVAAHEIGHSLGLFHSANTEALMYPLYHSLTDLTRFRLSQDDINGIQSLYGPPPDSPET
HPN, sequence (chain, as listed by the source): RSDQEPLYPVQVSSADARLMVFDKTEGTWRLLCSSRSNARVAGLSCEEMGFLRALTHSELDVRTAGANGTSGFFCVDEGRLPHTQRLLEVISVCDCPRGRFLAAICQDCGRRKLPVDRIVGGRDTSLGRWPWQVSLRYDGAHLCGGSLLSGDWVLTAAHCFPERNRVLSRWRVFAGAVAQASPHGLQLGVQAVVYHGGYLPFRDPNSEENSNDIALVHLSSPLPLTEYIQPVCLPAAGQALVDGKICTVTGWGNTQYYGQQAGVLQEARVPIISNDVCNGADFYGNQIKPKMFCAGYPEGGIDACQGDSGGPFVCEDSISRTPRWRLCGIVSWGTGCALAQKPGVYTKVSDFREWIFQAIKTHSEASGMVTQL
MMP10, sequence (chain, as listed by the source): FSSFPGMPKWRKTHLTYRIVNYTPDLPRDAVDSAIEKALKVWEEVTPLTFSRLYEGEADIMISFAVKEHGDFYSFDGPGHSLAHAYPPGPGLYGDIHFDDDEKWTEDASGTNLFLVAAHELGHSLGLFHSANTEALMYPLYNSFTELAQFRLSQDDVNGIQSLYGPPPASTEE

Q: Which results are given for HPN?
A: Top hit (cleavage of PEG-coupled FRET substrate by recombinant proteases) [1]: HPN; Top hit (cleavage of PEG-coupled FRET substrate by recombinant proteases) [2]: HPN

Q: Which results are given for KLK2?
A: Second hit (cleavage of PEG-coupled FRET substrate by recombinant proteases) [1]: KLK2; Top hit (cleavage of PEG-coupled FRET substrate by recombinant proteases) [3]: KLK2; Top hit (cleavage of PEG-coupled FRET substrate by recombinant proteases) [4]: KLK2

Q: How did the “Second hit (cleavage of PEG-coupled FRET substrate by recombinant proteases)” value (“Second hit” below) [5] turn out when KLK3 was run?
A: The value was “KLK3”.

Q: And the “Second hit” value [4]?
A: The value was “KLK3”.

Q: With MMP3 as the substance, how does the “Second hit” value [6] read?
A: The value was “MMP3”.

Q: And the “Top hit (cleavage of PEG-coupled FRET substrate by recombinant proteases)” value (“Top hit” for short) [7]?
A: The value was “MMP3”.

Q: For MMP9, which “Top hit” value [8] is on record?
A: The value was “MMP9”.

Q: And the “Top hit” value [9]?
A: Its value is “MMP9”.

Q: What about the “Top hit” value [10] of the same substance?
A: Its value is “MMP9”.

Q: For MMP10, which “Top hit” value [6] is on record?
A: The value was “MMP10”.

Q: MMP13 was tested. Which substrate cleavage assay [11] did it give?
A: Its substrate cleavage assay is “MMP13 substrate, expressed by PC3”.

Q: And the “Top hit” value [12]?
A: Its value is “MMP13”.

Q: What about the substrate cleavage [12] of the same substance?
A: Its substrate cleavage is “selectively cleaved by MMP13 and uPA”.

Q: What about the “substrate cleavage in vitro” value [12] of the same substance?
A: The value was “in vitro, these substrates are cleaved by proteases overexpressed in PC3 cells, MMP13 and uPA”.

Q: What about the “Second hit” value [13] of the same substance?
A: The value was “MMP13”.

Q: How did the substrate cleavage assay [14] turn out when uPA was run?
A: Its substrate cleavage assay is “uPA substrate, expressed by PC3”.

Q: And the “Top hit” value [15]?
A: The value was “uPA”.

Q: And the substrate cleavage [15]?
A: The substrate cleavage was “selectively cleaved by MMP13 and uPA”.

Q: And the “substrate cleavage in vitro” value [15]?
A: The value was “in vitro, these substrates are cleaved by proteases overexpressed in PC3 cells, MMP13 and uPA”.
